The target of the experiment is Proteinase 3 (PR3), purified (UniProt P24158). Briefly: SPR; BIAcore 3000; PR3 immobilised on a CM5 chip by amine coupling; C1q, gC1q or cC1q as soluble analytes; 50 mM Tris, 150 mM NaCl, 2 mM Ca2+, 0.005% surfactant P20, pH 7.4; flow 20 µl/min; global fit to a 1:1 Langmuir model; apparent KD from koff/kon. Background: In SPR one partner is held on a chip, and binding of the other changes the refractive index at the surface.
Proteinase 3 (PR3), purified, sequence (P24158 28-248): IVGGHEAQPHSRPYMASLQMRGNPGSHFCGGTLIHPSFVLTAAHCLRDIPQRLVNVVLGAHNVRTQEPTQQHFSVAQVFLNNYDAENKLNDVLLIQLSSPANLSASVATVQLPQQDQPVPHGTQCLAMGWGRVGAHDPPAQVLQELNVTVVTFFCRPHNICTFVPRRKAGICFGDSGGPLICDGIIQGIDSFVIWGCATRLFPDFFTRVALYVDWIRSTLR

A word on the koff: it is a measure of how fast the partners let go of each other. Usually kon stands for a measure of how fast the partners come together. As to “globular region of C1q (gC1q) (domain or fragment)”, the Kd turned out to be 400 nM, the off-rate constant (koff) turned out to be 0.0072 s⁻¹ and the association rate constant (kon) was found to be 18000 M⁻¹ s⁻¹.
